Measured values from IntAct's records for PubMed 21893288.

B1: Translocated intimin receptor Tir (Escherichia coli O157:H7), Q7DB77 (parent)
chain: MPIGNLGHNPNVNNSIPPAPPLPSQTDGAGGRGQLINSTGPLGSRALFTPVRNSMADSGDNRASDVPGLPVNPMRLAASEITLNDGFEVLHDHGPLDTLNRQIGSSVFRVETQEDGKHIAVGQRNGVETSVVLSDQEYARLQSIDPEGKDKFVFTGGRGGAGHAMVTVASDITEARQRILELLEPKGTGESKGAGESKGVGELRESNSGAENTTETQTSTSTSSLRSDPKLWLALGTVATGLIGLAATGIVQALALTPEPDSPTTTDPDAAASATETATRDQLTKEAFQNPDNQKVNIDELGNAIPSGVLKDDVVANIEEQAKAAGEEAKQQAIENNAQAQKKYDEQQAKRQEELKVSSGAGYGLSGALILGGGIGVAVTAALHRKNQPVEQTTTTTTTTTTTSARTVENKPANNTPAQGNVDTPGSEDTMESRRSSMASTSSTFFDTSSIGTVQNPYADVKTSLHDSQVPTSNSNTSVQNMGNTDSVVYSTIQHPPRDTTDNGARLLGNPSAGIQSTYARLALSGGLRHDMGGLTGGSNSAVNTSNNPPAPGSHRFV
B2: BAR/IMD domain-containing adapter protein 2 (Homo sapiens), Q9UQB8-4 (parent)
chain: MSLSRSEEMHRLTENVYKTIMEQFNPSLRNFIAMGKNYEKALAGVTYAAKGYFDALVKMGELASESQGSKELGDVLFQMAEVHRQIQNQLEEMLKSFHNELLTQLEQKVELDSRYLSAALKKYQTEQRSKGDALDKCQAELKKLRKKSQGSKNPQKYSDKELQYIDAISNKQGELENYVSDGYKTALTEERRRFCFLVEKQCAVAKNSAAYHSKGKELLAQKLPLWQQACADPSKIPERAVQLMQQVASNGATLPSALSASKSNLVISDPIPGAKPLPVPPELAPFVGRMSAQESTPIMNGVTGPDGEDYSPWADRKAAQPKSLSPPQSQSKLSDSYSNTLPVRKSVTPKNSYATTENKTLPRSSSMAAGLERNGRMRVKAIFSHAAGDNSTLLSFKEGDLITLLVPEARDGWHYGESEKTKMRGWFPFSYTRVLDSDGSDRLHMSLQQGKSSSTGNLLDKDDLAIPPPDYGAASRAFPAQTASGFKQRPYSVAVPAFSQGLDDYGARSMSSGSGTLVSTV

Columns and labels:
BAIAP2, Q9UQB8-4 = variants of: B1; settings: with BAIAP2, Q9UQB8-4
tir_eco27 tir, B7UM99 [1] = variants of: B2; settings: with tir_eco27 tir
tir_eco57 tir, Q7DB77 [2] = variants of: B2; settings: with tir_eco57 tir
tir_eco27 tir, B7UM99 [3] = variants of: B2; settings: with tir_eco27 tir; remark: listed apart in the source
tir_eco57 tir, Q7DB77 [4] = variants of: B2; settings: with tir_eco57 tir; remark: listed apart in the source
tir_eco57 tir, Q7DB77 [5] = variants of: B2; settings: with tir_eco57 tir; remark: listed apart in the source

Variant	effect of a mutation on the interaction (BAIAP2, Q9UQB8-4)	effect of a mutation on the interaction (tir_eco27 tir, B7UM99 [1])	effect of a mutation on the interaction (tir_eco57 tir, Q7DB77 [2])	effect of a mutation on the interaction (tir_eco27 tir, B7UM99 [3])	effect of a mutation on the interaction (tir_eco57 tir, Q7DB77 [4])	effect of a mutation on the interaction (tir_eco57 tir, Q7DB77 [5])
Y458F	disrupting interaction	–	–	–	–	–
MSLSRSEEMHRLTENVYKTIMEQFNPSLRNFIAMGKNYEKALAGVTYAAKGYFDALVKMGELASESQGSKELGDVLFQMAEVHRQIQNQLEEMLKSFHNELLTQLEQKVELDSRYLSAALKKYQTEQRSKGDALDKCQAELKKLRKKSQGSKNPQKYSDKELQYIDAISNKQGELENYVSDGYKTALTEERRRFCALVEKQCAVAKNSAAYHSKGKELLAQKLPLWQQACADPSKIPERAVQLMQQVASNGATLPSALSASKSNLVISDPIPGAKPLPVPPELAPFVGRMSAQESTPIMNGVTGPDGEDYSPWADRKAAQPKSLSPPQSQSKLSDSYSNTLPVRKSVTPKNSYATTENKTLPRSSSMAAGLERNGRMRVKAIFSHAAGDNSTLLSFKEGDLITLLVPEARDGWHYGESEKTKMRGWFPFSYTRVLDSDGSDRLHMSLQQGKSSSTGNLLDKDDLAIPPPDYGAASRAFPAQTASGFKQRPYSVAVPAFSQGLDDYGARSMSSGSGTLVSTV [F196A]	–	disrupting interaction	disrupting interaction	decreasing interaction	decreasing interaction	–
MSLSRSEEMHRLTENVYKTIMEQFNPSLRNFIAMGKNYEKALAGVTYAAKGYFDALVKMGELASESQGSKELGDVLFQMAEVHRQIQNQLEEMLKSFHNELLTQLEQAVELDSRYLSAALKKYQTEQRSKGDALDKCQAELKKLRKKSQGSKNPQKYSDKELQYIDAISNKQGELENYVSDGYKTALTEERRRFCFLVEKQCAVAKNSAAYHSKGKELLAQKLPLWQQACADPSKIPERAVQLMQQVASNGATLPSALSASKSNLVISDPIPGAKPLPVPPELAPFVGRMSAQESTPIMNGVTGPDGEDYSPWADRKAAQPKSLSPPQSQSKLSDSYSNTLPVRKSVTPKNSYATTENKTLPRSSSMAAGLERNGRMRVKAIFSHAAGDNSTLLSFKEGDLITLLVPEARDGWHYGESEKTKMRGWFPFSYTRVLDSDGSDRLHMSLQQGKSSSTGNLLDKDDLAIPPPDYGAASRAFPAQTASGFKQRPYSVAVPAFSQGLDDYGARSMSSGSGTLVSTV [K108A]	–	disrupting interaction	disrupting interaction	–	–	–
MSLSRSEEMHRLTENVYKTIMEQFNPSLRNFIAMGKNYEKALAGVTYAAKGYFDALVKMGELASESQGSKELGDVLFQMAEVHRQIQNQLEEMLKSFHNELLTQLEQAVELDSRYLSAALKKYQTEQRSKGDALDKCQAELKKLRKKSQGSKNPQKYSDKELQYIDAISNKQGELENYVSDGYKTALTEERRSFCFLVEKQCAVAKNSAAYHSKGKELLAQKLPLWQQACADPSKIPERAVQLMQQVASNGATLPSALSASKSNLVISDPIPGAKPLPVPPELAPFVGRMSAQESTPIMNGVTGPDGEDYSPWADRKAAQPKSLSPPQSQSKLSDSYSNTLPVRKSVTPKNSYATTENKTLPRSSSMAAGLERNGRMRVKAIFSHAAGDNSTLLSFKEGDLITLLVPEARDGWHYGESEKTKMRGWFPFSYTRVLDSDGSDRLHMSLQQGKSSSTGNLLDKDDLAIPPPDYGAASRAFPAQTASGFKQRPYSVAVPAFSQGLDDYGARSMSSGSGTLVSTV [K108A;R193S]	–	–	–	disrupting interaction	–	disrupting interaction
MSLSRSEEMHRLTENVYKTIMEQFNPSLRNFIAMGKNYEKALAGVTYAAKGYFDALVKMGELASESQGSKELGDVLFQMAEVHRQIQNQLEEMLKSFHNELLTQLEQAVELDSRYLSAALKKYQTEQRSKGDALDKCQAELKKLRKKSQGSKNPQKYSDKELQYIDAISNKQGELENYVSDGYKTALTEERRRFCALVEKQCAVAKNSAAYHSKGKELLAQKLPLWQQACADPSKIPERAVQLMQQVASNGATLPSALSASKSNLVISDPIPGAKPLPVPPELAPFVGRMSAQESTPIMNGVTGPDGEDYSPWADRKAAQPKSLSPPQSQSKLSDSYSNTLPVRKSVTPKNSYATTENKTLPRSSSMAAGLERNGRMRVKAIFSHAAGDNSTLLSFKEGDLITLLVPEARDGWHYGESEKTKMRGWFPFSYTRVLDSDGSDRLHMSLQQGKSSSTGNLLDKDDLAIPPPDYGAASRAFPAQTASGFKQRPYSVAVPAFSQGLDDYGARSMSSGSGTLVSTV [K108A;F196A]	–	–	–	disrupting interaction	–	disrupting interaction
MSLSRSEEMHRLTENVYKTIMEQFNPSERNFIAMGKNYEKALAGVTYAAKGYFDALVKMGELASESQGSKELGDVLFQMAEVHRQIQNQLEEMLKSFHNELLTQLEQKVELDSRYLSAALKKYQTEQRSKGDALDKCQAELKKLRKKSQGSKNPQKYSDKELQYIDAISNKQGELENYVSDGYKTALTEERRRFCFLVEKQCAVAKNSAAYHSKGKELLAQKLPLWQQACADPSKIPERAVQLMQQVASNGATLPSALSASKSNLVISDPIPGAKPLPVPPELAPFVGRMSAQESTPIMNGVTGPDGEDYSPWADRKAAQPKSLSPPQSQSKLSDSYSNTLPVRKSVTPKNSYATTENKTLPRSSSMAAGLERNGRMRVKAIFSHAAGDNSTLLSFKEGDLITLLVPEARDGWHYGESEKTKMRGWFPFSYTRVLDSDGSDRLHMSLQQGKSSSTGNLLDKDDLAIPPPDYGAASRAFPAQTASGFKQRPYSVAVPAFSQGLDDYGARSMSSGSGTLVSTV [L28E]	–	–	–	disrupting interaction	disrupting interaction	–
MSLSRSEEMHRLTENVYKTIMEQFNPSLRNFIAMGKNYEKALAGVTYAAKGYFDALVKMGELASESQGSKELGDVLFQMAEVHRQIQNQLEEMLKSFHNELLTQLEQKVELDSRYLSAALKKYQTEQRSKGDALDKCQAELKKLRKKSQGSKNPQKYSDKELQYIDAISNKQGELENYVSDGYKTALTEERRSFCFLVEKQCAVAKNSAAYHSKGKELLAQKLPLWQQACADPSKIPERAVQLMQQVASNGATLPSALSASKSNLVISDPIPGAKPLPVPPELAPFVGRMSAQESTPIMNGVTGPDGEDYSPWADRKAAQPKSLSPPQSQSKLSDSYSNTLPVRKSVTPKNSYATTENKTLPRSSSMAAGLERNGRMRVKAIFSHAAGDNSTLLSFKEGDLITLLVPEARDGWHYGESEKTKMRGWFPFSYTRVLDSDGSDRLHMSLQQGKSSSTGNLLDKDDLAIPPPDYGAASRAFPAQTASGFKQRPYSVAVPAFSQGLDDYGARSMSSGSGTLVSTV [R193S]	–	–	–	disrupting interaction	disrupting interaction	–
